Measurements taken from patent publication US20110268733A1 (Daiichi Sankyo, published 2011).
Residue numbers refer to the chain shown, from its start. Numbers in names are those of the source.

B1: rat anti-mouse Siglec-15 monoclonal antibody #32A1 (antibody, rat IgG2a, V domains shown)
VH: EVQILETGGGLVKPGGSLRLSCATSGFNFNDYFMNWVRQAPEKGLEWVAQIRNKIYTYATFYAESLEGRVTISRDDSESSVYLQVSSLRAEDTAIYYCTRSLTGGDYFDYWGQGVMVTVSL
VL: DIVLTQSPALAVSLGQRATISCRASQSVTISGYSFIHWYQQKPGQQPRLLIYRASNLASGIPARFSGSGSGTDFTLTINPVQADDIATYFCQQSRKSPWTFAGGTKLELRRA
notes: Whole rat IgG purified from nude mouse ascites; Cloning primers were designed from the rat IgG2a heavy chain and kappa light chain constant regions; also called #32A1 antibody; rat #32A1 antibody
B2: h#32A1-T1 (antibody, human IgG1, kappa, V domains shown)
VH: EVQLVESGGGLVQPGGSLRLSCAASGFNFNDYFMNWVRQAPGKGLEWVAQIRNKIYTYATFYAESLEGRFTISRDNAKNSLYLQMNSLRAEDTAVYYCARSLTGGDYFDYWGQGTLVTVSS
VL: DIVMTQSPDSLAVSLGERATINCRASQSVTISGYSFIHWYQQKPGQPPKLLIYRASNLASGVPARFSGSGSGTDFTLTISSLQAEDVAVYYCQQSRKSPWTFGGGTKVEIKR
notes: Human IgG1 / kappa constant regions; also called humanized antibody of rat anti-mouse Siglec-15 #32A1 T1; h#32A1-T1H / h#32A1-T1L
B3: h#32A1-T6 (antibody, human IgG1, kappa, V domains shown)
VH: B2 VH with L4V, A24T, G42E, F70V, A77S, N79S, S80T, L81V, N86S, A99T
VL: B2 VL with M4L, N22S, K49R, V62I, V89T, Y91F, G103A
notes: Human IgG1 / kappa constant regions; also called humanized antibody of rat anti-mouse Siglec-15 #32A1 T6; h#32A1-T6H / h#32A1-T6L
B4: h#32A1-T2 (antibody, human IgG1, kappa, V domains shown)
VH: B2 VH with G42E, F70V, N86S
VL: B2 VL with N22S, K49R, Y91F, G103A
notes: Human IgG1 / kappa constant regions; also called humanized antibody of rat anti-mouse Siglec-15 #32A1 T2; h#32A1-T2H / h#32A1-T2L
B5: h#32A1-T3 (antibody, human IgG1, kappa, V domains shown)
VH: B1 VH with L5V, T7S, K13Q, V85M, I95V, V115T, M116L, L121S
VL: B2 VL with M4L, N22S, P47Q, K49R, V62I, V89T, Y91F, G103A
notes: Human IgG1 / kappa constant regions; also called humanized antibody of rat anti-mouse Siglec-15 #32A1 T3; h#32A1-T3H / h#32A1-T3L
B6: h#32A1-T5 (antibody, human IgG1, kappa, V domains shown)
VH: B2 VH with L4V, A24T, A77S, N79S, S80T, L81V, A99T
VL: B2 VL with M4L, V62I, V89T, G104Q
notes: Human IgG1 / kappa constant regions; also called humanized antibody of rat anti-mouse Siglec-15 #32A1 T5; h#32A1-T5H / h#32A1-T5L

Key:
[1] = molecular target: T1, human Siglec-15 V-set domain (human, UniProt Q6ZMC9 39-165); experiment: competitive ELISA: V-set domain (0 to 20 µg/ml) pre-mixed with #32A1 (2 µg/ml), then added to captured human Siglec-15-Fc
T1 construct: The His tag was cleaved with thrombin before use; also called human V-set domain
T1 sequence: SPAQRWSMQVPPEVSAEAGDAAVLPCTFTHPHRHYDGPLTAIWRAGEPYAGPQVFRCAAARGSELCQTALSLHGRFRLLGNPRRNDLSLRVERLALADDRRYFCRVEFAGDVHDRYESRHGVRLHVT
Procedure: In a 96-well maxi-sorp plate (manufactured by Nunc, Inc., model number: 442404), 100 μl of a goat anti-human Fc antibody (Jackson ImmunoResearch, Inc., model number: 109-005-098) (1.25 μg/ml) was added to each well and immobilized overnight at 4° C. After the 96-well maxi-sorp plate was washed twice with PBS, 100 μl of the soluble human Siglec-15-Fc (1 μg/ml) was added to each well and immobilized at room temperature for 1 hour. Thereafter, 300 μl of a 5% skim milk/PBS solution was added to each well, and blocking of the wells was performed at room temperature for 3 hours. In the meantime, 2 μg/ml of the rat anti-mouse Siglec-15 monoclonal antibody #32A1 was mixed with an equivalent amount of 0, 0.032, 0.16, 0.8, 4, or 20 μg/ml of the human Siglec-15 V-set domain, and a reaction was allowed to proceed at room temperature for 1.5 hours. After the 96-well maxi-sorp plate had been washed twice with PBS, 100 μl of the mixed solution of the rat anti-mouse Siglec-15 monoclonal antibody #32A1 and the human Siglec-15 V-set domain was added thereto, and a reaction was allowed to proceed at room temperature for 1 hour. […] Then, 100 μl of a reaction stopping solution was added thereto, and an absorbance at 405 nm was measured.

human Siglec-15-Fc [2] = molecular target: T2, human Siglec-15-Fc (human); experiment: ELISA, human Siglec-15-Fc immobilized at 5 µg/ml, antibody 1.28 to 20,000 ng/ml
T2 construct: Expressed in 293-F cells, purified on Protein A; also called soluble human Siglec-15-Fc; human Siglec-15-Fc protein
Procedure: The property of the rat anti-mouse Siglec-15 monoclonal antibody binding to human Siglec-15 protein was evaluated by an ELISA method. The human Siglec-15-Fc protein (subjected to replacement with A-PBS) produced in b) of Example 12 was diluted to 5 μg/ml with 0.1 M sodium carbonate buffer (pH 9.5), and the resulting solution was added to a 96-well plate (manufactured by Nalge Nunc International, Inc., Cat. No. 430341) at 100 μl/well. After the plate had been left at room temperature for 1 hour, the solution was removed and a washing buffer (phosphate-buffered saline containing 0.05% Tween 20) was added at 300 μl/well and then removed. After this washing procedure had been performed one more time, phosphate-buffered saline containing 25% BlockAce (manufactured by Dainippon Sumitomo Pharma Co., Ltd.) was added at 200 μl/well, and the plate was left at room temperature for 1 hour, whereby blocking was performed. The liquid was removed, and the plate was washed twice with 300 μl/well of the washing buffer. […] After developing the color, an absorbance at 492 nm was measured using a microplate reader (manufactured by Nihon Molecular Devices Corporation).

human Siglec-15-Fc [3] = molecular target: T2, human Siglec-15-Fc; experiment: ELISA, human Siglec-15-Fc immobilized at 1 µg/ml, antibody 1 to 0.004 µg/ml, fluorescence read-out

T2 sequence (chain, as listed by the source limits assumed): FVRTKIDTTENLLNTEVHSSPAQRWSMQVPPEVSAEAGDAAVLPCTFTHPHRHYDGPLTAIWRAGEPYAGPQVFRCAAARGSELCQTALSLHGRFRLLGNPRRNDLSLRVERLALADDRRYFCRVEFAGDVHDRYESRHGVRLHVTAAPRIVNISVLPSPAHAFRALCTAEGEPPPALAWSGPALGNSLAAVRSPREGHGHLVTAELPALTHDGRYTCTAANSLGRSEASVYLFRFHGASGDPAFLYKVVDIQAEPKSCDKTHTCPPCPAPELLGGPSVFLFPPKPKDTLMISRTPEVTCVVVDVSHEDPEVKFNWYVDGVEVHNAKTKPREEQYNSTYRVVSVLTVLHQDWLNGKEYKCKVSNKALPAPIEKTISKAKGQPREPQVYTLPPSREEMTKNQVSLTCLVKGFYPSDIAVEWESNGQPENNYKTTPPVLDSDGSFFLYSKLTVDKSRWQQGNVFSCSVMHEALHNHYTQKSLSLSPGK

Row | Binder | binding result [1] | binding result (human Siglec-15-Fc [2]) | binding result (human Siglec-15-Fc [3])
1 | B1 | binds | binds | 
2 | B2 |  |  | binds
3 | B3 |  |  | binds
4 | B4 |  |  | binds
5 | B5 |  |  | binds
6 | B6 |  |  | binds
